Data on one molecule can be found in patent publication US20240402174A1 (Takeda / Millennium, published 2024).

Holding throughout (assay): multiplex microsphere immunoassay
For one assay, the target named is T1, GI.2 VLP (norovirus Hu/GI.2/Jingzhou/2013401/CHN, UniProt Q04542 1-546).
T1 construct: also called GI.2 Jingzhou
T1 chain: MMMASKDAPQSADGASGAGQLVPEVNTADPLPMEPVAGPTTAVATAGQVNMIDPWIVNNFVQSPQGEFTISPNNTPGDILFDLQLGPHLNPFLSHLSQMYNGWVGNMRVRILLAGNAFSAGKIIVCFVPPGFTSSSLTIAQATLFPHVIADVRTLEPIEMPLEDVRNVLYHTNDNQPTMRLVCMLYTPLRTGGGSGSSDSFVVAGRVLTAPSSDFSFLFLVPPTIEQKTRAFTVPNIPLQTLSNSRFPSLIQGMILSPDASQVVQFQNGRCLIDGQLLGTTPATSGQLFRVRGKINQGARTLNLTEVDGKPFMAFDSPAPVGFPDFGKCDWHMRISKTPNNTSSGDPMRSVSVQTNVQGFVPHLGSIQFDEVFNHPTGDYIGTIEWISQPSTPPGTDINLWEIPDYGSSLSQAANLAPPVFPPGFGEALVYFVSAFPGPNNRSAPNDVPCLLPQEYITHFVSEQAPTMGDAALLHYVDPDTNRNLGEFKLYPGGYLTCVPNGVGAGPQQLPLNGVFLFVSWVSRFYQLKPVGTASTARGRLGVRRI

A further assay deals with T2, GI.3 VLP (norovirus Hu/GI.3/JKPG_883/SWE/2007).
T2 construct: also called GI.3 Sweden
T2 chain: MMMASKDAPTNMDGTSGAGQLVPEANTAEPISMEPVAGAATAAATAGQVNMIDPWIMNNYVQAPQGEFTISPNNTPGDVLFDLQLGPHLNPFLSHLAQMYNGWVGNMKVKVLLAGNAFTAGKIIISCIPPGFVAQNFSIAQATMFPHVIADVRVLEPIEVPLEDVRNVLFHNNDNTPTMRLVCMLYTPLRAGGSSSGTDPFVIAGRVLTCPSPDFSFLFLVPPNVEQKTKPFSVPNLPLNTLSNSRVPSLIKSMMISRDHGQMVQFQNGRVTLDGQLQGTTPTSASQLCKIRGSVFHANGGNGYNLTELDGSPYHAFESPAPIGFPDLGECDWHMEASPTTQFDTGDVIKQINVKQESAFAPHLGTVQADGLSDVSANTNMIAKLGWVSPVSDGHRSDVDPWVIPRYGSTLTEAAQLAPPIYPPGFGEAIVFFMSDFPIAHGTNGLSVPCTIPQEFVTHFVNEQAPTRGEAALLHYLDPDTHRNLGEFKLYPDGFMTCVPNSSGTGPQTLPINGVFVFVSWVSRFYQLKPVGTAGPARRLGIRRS

Another assay deals with T3, GI.4 VLP (norovirus Hu/GI.4/1643/2008/US).
T3 construct: also called GI.4 US
T3 chain: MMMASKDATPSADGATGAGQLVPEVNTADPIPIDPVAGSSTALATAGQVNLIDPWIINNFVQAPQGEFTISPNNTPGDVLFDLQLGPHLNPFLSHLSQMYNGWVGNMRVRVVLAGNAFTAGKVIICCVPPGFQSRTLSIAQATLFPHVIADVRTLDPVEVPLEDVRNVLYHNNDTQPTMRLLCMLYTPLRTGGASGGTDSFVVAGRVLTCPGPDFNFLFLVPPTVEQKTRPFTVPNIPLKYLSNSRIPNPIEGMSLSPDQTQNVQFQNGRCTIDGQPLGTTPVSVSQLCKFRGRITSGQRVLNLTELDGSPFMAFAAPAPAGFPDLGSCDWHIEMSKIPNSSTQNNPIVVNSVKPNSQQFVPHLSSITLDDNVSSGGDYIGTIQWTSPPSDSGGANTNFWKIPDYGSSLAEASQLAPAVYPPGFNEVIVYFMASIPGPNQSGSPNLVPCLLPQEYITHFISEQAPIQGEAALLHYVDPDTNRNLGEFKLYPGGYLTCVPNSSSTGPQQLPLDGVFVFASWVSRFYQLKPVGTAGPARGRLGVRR

For a further assay, the target named is T4, GI.5 VLP (norovirus …).
T4 construct: also called GI.5 Siklos
T4 chain: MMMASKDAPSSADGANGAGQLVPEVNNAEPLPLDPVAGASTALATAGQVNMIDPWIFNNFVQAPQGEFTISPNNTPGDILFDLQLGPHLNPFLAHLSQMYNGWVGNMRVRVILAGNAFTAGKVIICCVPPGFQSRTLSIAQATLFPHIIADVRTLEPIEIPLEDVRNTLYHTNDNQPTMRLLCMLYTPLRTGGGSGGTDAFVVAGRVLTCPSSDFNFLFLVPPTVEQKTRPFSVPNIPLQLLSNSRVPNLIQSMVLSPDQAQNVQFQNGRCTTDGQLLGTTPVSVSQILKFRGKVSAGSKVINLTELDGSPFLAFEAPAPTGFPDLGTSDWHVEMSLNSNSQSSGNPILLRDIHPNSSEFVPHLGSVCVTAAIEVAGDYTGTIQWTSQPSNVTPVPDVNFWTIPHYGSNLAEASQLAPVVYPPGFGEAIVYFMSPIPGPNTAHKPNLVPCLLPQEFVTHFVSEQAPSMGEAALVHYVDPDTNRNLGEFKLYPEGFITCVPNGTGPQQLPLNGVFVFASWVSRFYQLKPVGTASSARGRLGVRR

The target in a further assay is T5, GI.6 VLP (norovirus Hu/GI.6/TCH-099/USA/2003).
T5 construct: also called GI.6 USA
T5 chain: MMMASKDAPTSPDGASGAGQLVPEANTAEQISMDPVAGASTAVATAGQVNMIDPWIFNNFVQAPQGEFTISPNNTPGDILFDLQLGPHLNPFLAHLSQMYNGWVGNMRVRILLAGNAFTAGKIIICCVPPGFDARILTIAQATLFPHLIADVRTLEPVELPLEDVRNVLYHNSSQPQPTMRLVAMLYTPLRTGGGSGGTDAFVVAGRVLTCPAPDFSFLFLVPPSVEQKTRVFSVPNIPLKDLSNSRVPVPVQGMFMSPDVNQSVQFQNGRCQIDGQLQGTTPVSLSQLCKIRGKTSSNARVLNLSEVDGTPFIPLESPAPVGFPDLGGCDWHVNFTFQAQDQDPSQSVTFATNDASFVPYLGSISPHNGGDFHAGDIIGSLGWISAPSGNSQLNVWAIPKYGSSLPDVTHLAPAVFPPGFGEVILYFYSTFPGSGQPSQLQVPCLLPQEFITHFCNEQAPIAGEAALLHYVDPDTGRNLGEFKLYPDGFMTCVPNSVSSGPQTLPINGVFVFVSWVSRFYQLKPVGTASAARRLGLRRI

A further assay addresses T6, GI.7 VLP (norovirus Hu/GI.7/Providence191/2010/USA).
T6 construct: also called GI.7 Providence
T6 chain: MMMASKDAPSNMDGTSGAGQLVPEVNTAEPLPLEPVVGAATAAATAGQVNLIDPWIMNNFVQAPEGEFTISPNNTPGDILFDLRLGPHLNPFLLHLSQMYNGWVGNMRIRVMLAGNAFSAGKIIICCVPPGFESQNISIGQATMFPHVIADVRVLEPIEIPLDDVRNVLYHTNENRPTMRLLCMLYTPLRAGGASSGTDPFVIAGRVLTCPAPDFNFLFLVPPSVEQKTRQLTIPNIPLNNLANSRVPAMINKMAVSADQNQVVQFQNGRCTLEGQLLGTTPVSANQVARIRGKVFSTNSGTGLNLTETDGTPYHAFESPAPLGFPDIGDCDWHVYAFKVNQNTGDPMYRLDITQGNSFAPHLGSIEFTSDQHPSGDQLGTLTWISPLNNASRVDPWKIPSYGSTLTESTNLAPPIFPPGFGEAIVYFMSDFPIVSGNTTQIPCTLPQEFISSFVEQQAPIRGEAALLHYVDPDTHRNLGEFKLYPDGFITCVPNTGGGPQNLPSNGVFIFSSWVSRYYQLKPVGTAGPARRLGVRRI

B1: human mAb 1227 (antibody, V domains shown)
VH: QVQLVQSGGGMVQPGGSLSLSCAASGFTLSNYAMTWVRQAPGKGLEWVSSIGGSGGTTYYADSVKGRFTISRDSSMNTLYLQMSNLRAGDTAVYYCAKDKTRTLRLGYSGMDVWGQGTTVTVSS
VL: DIRLTQSPSSLSASVGDRVTITCRASQSISSYLNWYQQKPGKAPDLLIYGASSLQSGVPSRFSGSGSGTDFTLTISSLQPEDFGNYYCQQSFSTPRTFGQGTKVEL
notes: also called A1227
As usually defined, the EC50 is the concentration at which the effect is half-maximal. High values mean lower potency in that assay, low ones higher potency in that assay. As to B1, the EC50 was found to be 2 ng/mL in the assay with GI.2 VLP; 2 ng/mL with GI.3 VLP; 2 ng/mL in the assay with GI.4 VLP; 1 ng/mL with GI.5 VLP; 2 ng/mL with GI.6 VLP; 21 ng/mL with GI.7 VLP.
